Experimental data published in the supplement of paper PMC9732359.
± gives the uncertainty stated by the source.

Assay: protein stability index of a GFP-peptide fusion (yeast GPS) (PSI 1-4); higher = more stable; sorted into four equal gates, so the index is relative within each strain
Method in brief: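 Tiled 17-residue peptides from yeast proteins were fused downstream of GFP on a plasmid that also expresses Cherry, and the pooled library was carried in yeast. Mid-log cultures grown in leucine-free medium were sorted into four equal gates by GFP/Cherry fluorescence ratio. Plasmids from each gate were PCR-amplified and Illumina-sequenced, and reads were assigned to strains by barcodes. Each peptide's protein stability index is the sum, over gates, of the gate's read frequency multiplied by its gate number.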

Row | Sequence | protein stability index (doa10∆) | protein stability index (pdr5∆) | protein stability index (san1∆) | protein stability index (ubr1∆)
1 | VEESSEKKQKTESQDVE [DPB4] | 2.8 ± 0.13 | 3.33 ± 0.12 | 3.23 ± 0.13 | 3.03 ± 0.07
2 | GNYVIIIGHNPDENKTR [RPL2A] | 2.97 ± 0.088 | 3.32 ± 0.093 | 3.12 ± 0.074 | 2.87 ± 0.082
3 | VRNVKGPVRENDILVLM [RPS28A] | 3.24 ± 0.11 | 3.04 ± 0.1 | 3.5 ± 0.13 | 2.98 ± 0.074
4 | ISTRERDYLVDTLKLRE [RRP6] | 3.07 ± 0.076 | 2.72 ± 0.061 | 2.97 ± 0.065 | 3.17 ± 0.06
5 | DSIDLAPNTLTNILISP [YML103C/NUP188] | 1.58 ± 0.11 | 1.87 ± 0.081 | 1.55 ± 0.15 | 1.56 ± 0.19
6 | LEATWNFIEPGINQILG [CDC53] | 2.95 ± 0.29 | 2.75 ± 0.27 | 3.38 ± 0.1 | 3.08 ± 0.12
7 | RMKSITSTSQKIPSASI [SNF5] | 3.2 ± 0.082 | 3.18 ± 0.072 | 3.17 ± 0.045 | 3.08 ± 0.051
8 | DELDQEILNLSTQELQT [RPT5] | 3.21 ± 0.084 | 3.15 ± 0.09 | 3.14 ± 0.06 | 3.13 ± 0.078
9 | DYNDVEVNSKKKNKRAL [BRR2] | 3.07 ± 0.098 | 2.95 ± 0.07 | 2.78 ± 0.12 | 3.02 ± 0.061
10 | PLAPAPINLPPQIAQLP [SNF5] | 1.8 ± 0.079 | 2.09 ± 0.064 | 1.88 ± 0.12 | 1.97 ± 0.061
11 | KREKRVFLKHSLSIKLA [RPN6] | 2.58 ± 0.083 | 3.22 ± 0.09 | 2.75 ± 0.086 | 2.81 ± 0.094
12 | ATAVAHVKAGKGLIKVN [RPS16A] | 1.66 ± 0.2 | 1.9 ± 0.12 | – | 1.21 ± 0.24
13 | CEISGSIEQLRNVVEDI [BRN1] | 3.25 ± 0.18 | 3.33 ± 0.2 | 3.09 ± 0.19 | –
14 | AFITQLESSITDAGVLA [YJL039C/NUP192] | 1.54 ± 0.06 | 1.6 ± 0.057 | 1.16 ± 0.14 | 1.08 ± 0.096
15 | FQAHEITSFLLSKMENV [NAS6] | 1.79 ± 0.079 | 1.53 ± 0.045 | 1.66 ± 0.094 | 1.69 ± 0.045
16 | LEDIYTSAHEAIRADPA [RPL5] | 3.04 ± 0.066 | 2.98 ± 0.082 | 3.13 ± 0.072 | 3.19 ± 0.051
17 | DDYEDQDDDDYVDTATA [IRR1] | 3.14 ± 0.08 | 3.47 ± 0.071 | 2.93 ± 0.093 | 3.22 ± 0.049
18 | RATTYEKLTMVFQDNVY [SIN4] | 2.2 ± 0.065 | 2.48 ± 0.051 | 2.21 ± 0.11 | 2.53 ± 0.057
19 | MLRRHAAPPSTNFEILN [DIS3] | 1.87 ± 0.11 | 1.8 ± 0.1 | 1.71 ± 0.18 | 2.93 ± 0.074
20 | LQIKRDVLDDLYRKLQR [CSE2] | 2.94 ± 0.072 | 3.11 ± 0.069 | 3.01 ± 0.085 | 3.35 ± 0.055
21 | AMKELAEKKIPLVIRRY [RPO26] | 1.28 ± 0.087 | 1.55 ± 0.092 | 1.7 ± 0.13 | 1.73 ± 0.11
22 | TGVMIGIDLAYNMYDAY [PRP8] | 2.5 ± 0.064 | 2.69 ± 0.053 | 2.82 ± 0.066 | 2.84 ± 0.051
23 | GFKWLNKLDEYHGLYTN [LIN1] | 1.81 ± 0.056 | 1.79 ± 0.056 | 1.88 ± 0.056 | 1.67 ± 0.068
24 | GCKNGSFTLLNQLSQTN [NUT1] | 2.86 ± 0.12 | 3.05 ± 0.079 | 2.97 ± 0.095 | 3.22 ± 0.11
25 | DIRKFLDGIYVSHKGFI [RPL9A] | 1.39 ± 0.1 | 2.08 ± 0.077 | 1.77 ± 0.16 | 3.23 ± 0.1
26 | DVVYALKRQGRTLYGFG [HHF1] | 2.77 ± 0.083 | 2.8 ± 0.11 | 2.34 ± 0.14 | 2.38 ± 0.083
27 | PSVKRQKMAELEAARSE [PRP8] | 3.31 ± 0.1 | 3.26 ± 0.075 | 3.31 ± 0.074 | 3.28 ± 0.077
